Source: patent US9624471B2, “Methods for maturing cardiomyocytes and uses thereof” (UNIVERSITY OF WASHINGTON THROUGH ITS CENTER FOR …, priority 2013, dated 2017)

B1: let-7i: human let-7 family miRNA, SEQ ID NO: 10, overexpressed from pLKO lentiviral pri-miR-let-7i construct (nucleic acid, listed as Homo sapiens)
chain: CUGGCUGAGGUAGUAGUUUGUGCUGUUGGUCGGGUUGUGACAUUGCCCGCUGUGGAGAUAACUGCGCAAGCUACUGCCUUGCUA
B2: let-7g: human let-7 family miRNA, SEQ ID NO: 9, overexpressed from pLKO lentiviral pri-miR-let-7g construct (nucleic acid, listed as Homo sapiens)
chain: AGGCUGAGGUAGUAGUUUGUACAGUUUGAGGGUCUAUGAUACCACCCGGUACAGGAGAUAACUGUACAGGCCACUGCCUUGCCA

What was measured:
let-7 OE CMs = assay: Mitochondrial DNA copy number by qPCR (mtCol normalized to GAPDH); type: cell-based, human; details: let-7 OE vs. EV control
From the text: FIGS. 5A-5G Let-7 over expression results in down-regulation of PI3/AKT/Insulin pathway and up-regulation of FA metabolism. Comparisons were done between let-7OE and EV control for all assays (FIG. 5A) Density plots using R generated with fold change expression (let-7g OE/EV) of genes for FA metabolism and PI3/AKT/Insulin signaling. (FIG. 5B) qPCR analysis of candidate let-7 targets of the insulin pathway and genes from the FA metabolism. (FIG. 5C) Representative OCR profile in response to ATP synthase inhibitor oligomycin, uncoupler of electron transport and oxidative phosphorylation, FCCP and electron transport chain blockers rotenone and antimycin during mito-stress assay. (FIG. 5D) Quantification of maximal respiration capacity, i.e., changes in response to FCCP treatment after inhibition of ATP synthase by oligomycin. n=24 from 3 biological replicates. (FIG. 5E) mitochondrial DNA copy number was determined by measuring the ratio of MtDNA to genomic DNA using primers specific for mitochondrial DNA gene, Col (mtCol) and normalizing to chromosomal gene GAPDH. (FIG. 5F) Representative OCR trace of let-7g OE cardiomyocytes for fatty acid stress measuring Etomixir (ETO) responsive OCR changes after palmitate addition. (FIG. 5G) Quantification of changes in OCR in response to ETO. n=32 from 3 biological replicates. […]

IMR90 iPSC-CMs = assay: let-7 over-expression in IMR90 iPSC derived cardiomyocytes, qPCR; type: cell-based; details: for let-7 over expression relative to empty vector (EV) control: pLKO-lentiviral OE for up to 2 weeks; for cardiomyocyte maturation markers expression / let-7 targets (lin28 and HMGA2) expression: qPCR
From the text: FIGS. 19A-19B show let-7 over-expression (OE) in IMR90 iPSC derived cardiomyocytes (IMR90 iPSC-CMs). A pLKO-lentiviral based system was used to overexpress let-7g and let-7i in IMR90-iPSC-CMs for up to 2 weeks. […] Experiments were validated with 3 biological and 3 technical replicates. FIG. 19B qPCR validated the down-regulation of let-7 targets (lin28 and HMGA2) and upregulation of cardiomyocyte maturation markers in let-7i OE and let-7g OE CMs.
Total RNAs were extracted with miRNeasy™ mini kit (QIAGEN™) or using TRIZOL™ (INVITROGEN™). RNA was DNAse treated with DNA-free kit (AMBION™). miR-let-7g and mir-let-7i taqman assays (APPLIED BIOSYSTEMS) were used for miRNAqPCRs following the manufacturer's protocol using RNU66 snoRNA as a loading control. For mRNA qPCR, reverse transcription reaction was carried out using Omniscript™ RT kit (QIAGEN™). Primers for CTNT, MYH7, RYR2, SERCA2 and GJA1 were based on Tulloch et a1^2. Primers for HCN4, KCNJ2, SCN5A, HMGA1, HMGA2, IRS2, INSR, LIN28, SLC27A6 and FABP2, CD36, PPARA, TRIM71, EGR1, CDKN1A were purchased from Real Time Primers. qPCR was performed using SYBR green chemistry and ABI 7300 Real time PCR system. Samples were normalized using GAPDH as a house keeping gene.

[1] = system: cardiomyocytes (let-7 OE CMs vs. EV control); assay: SEAHORSE XF96 metabolic flux assay (MITOSTRESS, palmitate, glucose stress); type: cell-based, human; details: compared to EV control; for OCR changes after FCCP treatment (maximal respiration capacity): after oligomycin
From the text: To understand the molecular signaling components of maturation program that are modulated in let-7g OE CMs, the inventors probed the differential expression data further using density plots for each of the 12 pathways previously identified (FIG. 4F). […] The inverse relationship between FA metabolism and PI3/AKT/insulin signaling in let-7g OE CMs was similar to that observed in the 1 yr old CMs and consistent with the metabolic switch seen in maturing CMs in in vivo studies. The inventors validated by qPCR in the let-7 OE CMs the down-regulation of candidate let-7 targets in the insulin pathway and up-regulation of candidates of FA metabolism (FIG. 5B). To test the functional relevance for these gene expression changes, the inventors carried out metabolic analysis of let-7 OE CMs vs. EV control using the SEA HORSE™ metabolic flux assay. First, mitochondrial maximal respiration capacity was analyzed by measuring the oxygen consumption rate (OCR), a metabolic parameter representing the mitochondrial respiration levels. To record the maximum activity of the electron transport chain uncoupled from ATP synthesis, mitochondrial ATP synthase was inhibited with oligomycin, then maximum mitochondrial respiration was measured after addition of the proton gradient discharger, carbonyl cyanide 4-(trifluoromethoxy)phenylhydrazone (FCCP). […] Increased mitochondrial respiration can be due to increased mitochondrial copy number or increased mitochondrial activity, for example due to higher efficiency of glucose or fatty acid usage as energy substrates. […] To investigate whether the let-7 OE CMs also utilize glucose more efficiently, the extracellular acidification rate (ECAR) was determined. […] These experiments clearly indicate that let-7 OE specifically increases the efficiency of palmitate usage, which is an important sign of maturation.
The SEAHORSE™ XF96 extracellular flux analyzer was used to assess mitochondrial function. The plates were pre-treated with 0.1% Gelatin. At around 20 days after differentiation, the cardiomyocytes (both empty vector control and let-7 OE) were seeded onto the plates with a density of 30,000 cells per XF96 well (2,500/mm^2) to ensure about 90% surface coverage at the time of experiment. The SEAHORSE™ assays were carried out 3 days after the seeding onto the XF96 well plate. […] The OCR values were further normalized to the number of cells present in each well, quantified by the Hoechst staining (Hoechst 33342; SIGMA-ALDRICH™) as measured using fluorescence at 355 nm excitation and 460 nm emission. […] Cellular capacity to utilize Palmitate as an energy source was calculated as the OCR reduction after ETO addition. […]

| Molecule | mitochondrial genome copy number (let-7 OE CMs) | let-7 over expression relative to empty vector (EV) control (IMR90 iPSC-CMs) | cardiomyocyte maturation markers expression (IMR90 iPSC-CMs) | let-7 targets (lin28 and HMGA2) expression (IMR90 iPSC-CMs) | OCR changes after FCCP treatment (maximal respiration capacity) [1] | OCR increase in response to palmitate (fatty acid stress test) [1] |
| --- | --- | --- | --- | --- | --- | --- |
| B1 | without affecting | up to 8 fold | upregulation | down-regulation | significantly greater | greater |
| B2 | without affecting | ≤ 10 fold | upregulation | down-regulation | significantly greater | greater |
